The source of these data is paper PMC12053661.

To fix the notation:
B1: Spn1 (wild type) [S. cerevisiae (endogenous in strain S288c)] / Spt6-3XFLAG (wild type) [S. cerevisiae (endogenous in strain S288c)] (parent)
chain 1: MSTADQEQPKVVEATPEDGTASSQKSTINAENENTKQNQSMEPQETSKGTSNDTKDPDNGEKNEEAAIDENSNVEAAERKRKHISTDFSDDDLEKEEHNDQSLQPTVENRASKDRDSSATPSSRQELEEKLDRILKKPKVRRTRRDEDDLEQYLDEKILRLKDEMNIAAQLDIDTLNKRIETGDTSLIAMQKVKLLPKVVSVLSKANLADTILDNNLLQSVRIWLEPLPDGSLPSFEIQKSLFAALNDLPVKTEHLKESGLGRVVIFYTKSKRVEAQLARLAEKLIAEWTRPIIGASDNYRDKRIMQLEFDSEKLRKKSVMDSAKNRKKKSKSGEDPTSRGSSVQTLYEQAAARRNRAAAPAQTTTDYKYAPVSNLSAVPTNARAVGVGSTLNNSEMYKRLTSRLNKKHK
chain 2: MEETGDSKLVPRDEEEIVNDNDETKAPSEEEEGEDVFDSSEEDEDIDEDEDEARKVQEGFIVNDDDENEDPGTSISKKRRKHKRREREEDDRLSEDDLDLLMENAGVERTKASSSSGKFKRLKRVGDEGNAAESESDNVAASRQDSTSKLEDFFSEDEEEEESGLRNGRNNEYGRDEEDHENRNRTADKGGILDELDDFIEDDEFSDEDDETRQRRIQEKKLLREQSIKQPTQITGLSSDKIDEMYDIFGDGHDYDWALEIENEELENGNDNNEAEEEEIDEETGAIKSTKKKISLQDIYDLEDLKKNLMTEGDMKIRKTDIPERYQELRAGITDYGNMSSEDQELERNWIAEKISVDKNFDANYDLTEFKEAIGNAIKFITKENLEVPFIYAYRRNYISSREKDGFLLTEDDLWDIVSLDIEFHSLVNKKDYVQRFYAELHIDDPIVTEYFKNQNTASIAELNSLQDIYDYLEFKYANEINEMFINHTGKTGKKHLKNSSYEKFKASPLYQAVSDIGISAEDVGENISSQHQIHPPVDHPSSKPVEVIESILNANSGDLQVFTSNTKLAIDTVQKYYSLELSKNTKIREKVRSDFSKYYLADVVLTAKGKKEIQKGSLYEDIKYAINRTPMHFRRDPDVFLKMVEAESLNLLSVKLHMSSQAQYIEHLFQIALETTNTSDIAIEWNNFRKLAFNQAMDKIFQDISQEVKDNLTKNCQKLVAKTVRHKFMTKLDQAPFIPNVRDPKIPKILSLTCGQGRFGADAIIAVYVNRKGDFIRDYKIVDNPFDKTNPEKFEDTLDNIIQSCQPNAIGINGPNPKTQKFYKRLQEVLHKKQIVDSRGHTIPIIYVEDEVAIRYQNSERAAQEFPNKPPLVKYCIALARYMHSPLLEYANLTSEEVRSLSIHPHQNLLSSEQLSWALETAFVDIVNLVSVEVNKATDNNYYASALKYISGFGKRKAIDFLQSLQRLNEPLLARQQLITHNILHKTIFMNSAGFLYISWNEKRQKYEDLEHDQLDSTRIHPEDYHLATKVAADALEYDPDTIAEKEEQGTMSEFIELLREDPDRRAKLESLNLESYAEELEKNTGLRKLNNLNTIVLELLDGFEELRNDFHPLQGDEIFQSLTGESEKTFFKGSIIPVRVERFWHNDIICTTNSEVECVVNAQRHAGAQLRRPANEIYEIGKTYPAKVIYIDYANITAEVSLLDHDVKQQYVPISYSKDPSIWDLKQELEDAEEERKLMMAEARAKRTHRVINHPYYFPFNGRQAEDYLRSKERGEFVIRQSSRGDDHLVITWKLDKDLFQHIDIQELEKENPLALGKVLIVDNQKYNDLDQIIVEYLQNKVRLLNEMTSSEKFKSGTKKDVVKFIEDYSRVNPNKSVYYFSLNHDNPGWFYLMFKINANSKLYTWNVKLTNTGYFLVNYNYPSVIQLCNGFKTLLKSNSSKNRMNNYR
B2: Spt6-3XFLAG (wild type) [S. cerevisiae (endogenous in strain S288c)] / Spn1 (wild type) [S. cerevisiae (endogenous in strain S288c)] (parent)
chain 1: B1 chain 2
chain 2: B1 chain 1

The first experiment covers variants of B1. Briefly: Spt6-3XFLAG affinity purification with quantitative mass spectrometry. The note with it: with Spt6-3XFLAG (wild type) [S. cerevisiae (endogenous in strain S288c)]; shift to non-permissive temperature; point at -log10 p-value about 3.4; read off a plot.
chain 1 MSTADQEQPKVVEATPEDGTASSQKSTINAENENTKQNQSMEPQETSKGTSNDTKDPDNGEKNEEAAIDENSNVEAAERKRKHISTDFSDDDLEKEEHNDQSLQPTVENRASKDRDSSATPSSRQELEEKLDRILKKPKVRRTRRDEDDLEQYLDEKILRLKDEMNIAAQLDIDTLNKRIETGDTSLIAMQKVKLLPKVVSVLSKANLADTILDNNLLQSVRIWLEPLPDGSLPSFEIQKSLFAALNDLPVKTEHLKESGLGDVVIFYTKSKRVEAQLARLAEKLIAEWTRPIIGASDNYRDKRIMQLEFDSEKLRKKSVMDSAKNRKKKSKSGEDPTSRGSSVQTLYEQAAARRNRAAAPAQTTTDYKYAPVSNLSAVPTNARAVGVGSTLNNSEMYKRLTSRLNKKHK [chain 1 R263D]: the screen value (log2 fold-change) was -4.

The experiment is the same for the next values; noted with them: with Spt6-3XFLAG (wild type) [S. cerevisiae (endogenous in strain S288c)]; shift to non-permissive temperature; point at -log10 p-value about 3.5; read off a plot.
Consider chain 1 MSTADQEQPKVVEATPEDGTASSQKSTINAENENTKQNQSMEPQETSKGTSNDTKDPDNGEKNEEAAIDENSNVEAAERKRKHISTDFSDDDLEKEEHNDQSLQPTVENRASKDRDSSATPSSRQELEEKLDRILKKPKVRRTRRDEDDLEQYLDEKILRLKDEMNIAAQLDIDTLNKRIETGDTSLIAMQKVKLLPKVVSVLSKANLADTILDNNLLQSVRIWLEPLPDGSLPSFEIQKSLFAALNDLPVKTEHLKESGLGRVVIEYTKSKRVEAQLARLAEKLIAEWTRPIIGASDNYRDKRIMQLEFDSEKLRKKSVMDSAKNRKKKSKSGEDPTSRGSSVQTLYEQAAARRNRAAAPAQTTTDYKYAPVSNLSAVPTNARAVGVGSTLNNSEMYKRLTSRLNKKHK [chain 1 F267E], for which the screen value (log2 fold-change) was -4.3.

The variants in the next experiment derive from B2. The description is as above. Particulars: shift to non-permissive temperature, point at -log10 p-value about 3.5, read off a plot.
As to chain 1 F249K, the screen value (log2 fold-change) is -4.2.
